Test results published in PMC10341776.

Molecular target: chloroplast FOF1-ATP synthase from spinach chloroplasts (spinach (Spinacia oleracea)) (UniProt P06450)
Experiment: SAXS; AEX-purified cFOF1 dialysed overnight against 30 mM HEPES, 2 mM MgCl2, 0.04% (w/v) tPCC-α-M, 450 mM NaCl; room temperature; fit with a mixture of monomers and docked dimers (OLIGOMER); monomer to dimer

chloroplast FOF1-ATP synthase from spinach chloroplasts, P06450 1-507; P00825 1-498; P05435 42-364; P00833 1-134; P11402 71-257; P06451 1-247; P06453 1-184; P31853 76-222; P69447 1-81
fraction of dimeric cFOF1 (model with F1/F1 dimers): 68% | stoichiometry N: 2
